Test in all cases: micro-array, phage-presented peptide on printed CK
The target in one assay is T1, TECK (CCL25) (UniProt O15444 24-150).
T1 construct: Bought chemokine
T1 sequence (looked up): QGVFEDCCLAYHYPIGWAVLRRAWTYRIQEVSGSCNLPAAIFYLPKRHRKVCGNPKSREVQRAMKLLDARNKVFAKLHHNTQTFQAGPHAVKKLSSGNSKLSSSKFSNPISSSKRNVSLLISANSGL
The protocol: (§1) (1) Printing: Chemokine (CK) solution (in water) was serially diluted with Print Reagent (GenTel BioSurfaces USA) to final concentrations of 50 μg and 25 μg/ml. BSA/BSA-Biotin control solutions (in water) were diluted with Print Reagent to 100 μg/ml. Amplified stock of M13 phage control (M13KEgIII Cloning Vector, New England Biolabs, Cat.No.E8101S) was stored in Tris Buffered Saline (TBS; pH7.5, 4° C.) and diluted with Print Reagent to the working titre (10^8 pfu/μl). An automated spotting robot (16 pin print tool, 0.4mm head; BioRobotics, UK) was used to print the CK/BSA control/M13 control, 5 repeats per sample (CK 25 μg/ml and 50 μg/ml; BSA 100 μg/ml; M13 20 μl), on PATH Protein Microarray Slides (GenTel, Prod.No.2-1005/-1025) at […], and 50-70% relative humidity. Printed micro-array slides were stored at Room Temperature (RT) or 4° C. for at least 24 h before use.
(§2) (2) Blocking: Block Buffer (500 μl/partition; PATHblock, GenTel, Prod.No.2-1014) was applied to the slide for 1 hour at room temp (RT). After removal of Block Buffer, the slide was air dried for 25 minutes;
(§3) (11) Analysis: Quantitative analysis of micro-array was performed by the SpotReader program of Niles Scientific (USA) and presented as Relative Fluorescence (RF) as a function of CK concentration. Micro-array readout (Cy3 fluorescence) was quantified to determine the relative binding affinities of a CBP for the CKs and by inference, the specificity of the CBP for binding to a CK.

The next assay has as its target T2, Lymphotactin (XCL-1) (UniProt P47992 23-114, limits assumed).
T2 construct: Bought chemokine
T2 sequence (looked up): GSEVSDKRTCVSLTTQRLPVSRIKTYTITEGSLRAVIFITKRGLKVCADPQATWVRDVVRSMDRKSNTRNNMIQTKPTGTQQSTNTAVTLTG
On the procedure: as §1, §2, §3

The next assay has as its target T3, Eotaxin (CCL11) (UniProt P51671 24-97).
T3 construct: Bought chemokine
The protocol:
as §1, §2, §3

The target of the next assay is T4, IP-10 (CXCL10) (UniProt P02778 22-98).
T4 construct: Bought chemokine
T4 sequence (looked up): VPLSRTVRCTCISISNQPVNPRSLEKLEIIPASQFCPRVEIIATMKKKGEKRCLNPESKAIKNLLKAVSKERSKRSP
The protocol: as §1, §2, §3

Another assay deals with T5, MCP-2 (CCL8) (UniProt P80075 24-99).
T5 construct: Bought chemokine
T5 sequence (looked up): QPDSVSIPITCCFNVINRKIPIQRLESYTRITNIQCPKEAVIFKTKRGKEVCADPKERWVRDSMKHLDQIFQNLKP
On the procedure:
as §1, §2, §3

The target of a further assay is T6, I-TAC (CXCL11) (UniProt O14625 22-94).
T6 construct: Bought chemokine; also called I-TACK
T6 sequence (looked up): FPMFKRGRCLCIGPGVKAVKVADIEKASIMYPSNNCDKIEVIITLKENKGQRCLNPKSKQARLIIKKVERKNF
On the procedure:
as §1, §2, §3

For the next assay, the target named is T7, Mig (CXCL9) (UniProt Q07325 23-125).
T7 construct: Bought chemokine
T7 sequence (looked up): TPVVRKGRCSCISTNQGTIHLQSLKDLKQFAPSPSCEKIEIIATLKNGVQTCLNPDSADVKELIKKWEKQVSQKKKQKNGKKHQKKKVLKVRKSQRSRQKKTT
The protocol: as §1, §2, §3

The next assay concerns the target T8, I-309 (CCL1) (UniProt P22362 23-96, limits assumed).
T8 construct: Bought chemokine
T8 sequence (looked up): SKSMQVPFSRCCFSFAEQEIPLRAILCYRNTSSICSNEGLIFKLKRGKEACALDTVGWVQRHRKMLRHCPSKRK
On the procedure:
as §1, §2, §3

In the next assay the target is T9, MCP-4 (CCL13) (UniProt Q99616 24-98).
T9 construct: Bought chemokine
T9 sequence (Q99616 24-98 limits assumed): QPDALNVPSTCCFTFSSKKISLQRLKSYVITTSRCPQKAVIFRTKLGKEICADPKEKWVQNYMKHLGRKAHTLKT
On the procedure: as §1, §2, §3

The target of another assay is T10, BCA-1 (CXCL13) (UniProt O43927 23-109).
T10 construct: Bought chemokine
T10 sequence (looked up): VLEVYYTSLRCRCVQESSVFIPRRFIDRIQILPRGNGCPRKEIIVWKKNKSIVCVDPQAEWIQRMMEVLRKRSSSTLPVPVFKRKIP
On the procedure:
as §1, §2, §3

In a further assay the target is T11, Eotaxin 3 (CCL26) (UniProt Q9Y258 24-94).
T11 construct: Bought chemokine
T11 sequence (looked up): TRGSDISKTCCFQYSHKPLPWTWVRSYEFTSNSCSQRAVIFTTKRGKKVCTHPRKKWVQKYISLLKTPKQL
On the procedure: as §1, §2, §3

In a further assay the target is T12, GRO-β (CXCL2) (UniProt P19875 35-107).
T12 construct: Bought chemokine
T12 sequence (looked up): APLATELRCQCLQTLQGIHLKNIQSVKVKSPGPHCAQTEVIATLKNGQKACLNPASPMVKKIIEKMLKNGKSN
The protocol: as §1, §2, §3

For another assay, the target named is T13, MCP-1 (CCL2) (UniProt P13500 24-99).
T13 construct: Bought chemokine
T13 sequence (P13500 24-99 limits assumed): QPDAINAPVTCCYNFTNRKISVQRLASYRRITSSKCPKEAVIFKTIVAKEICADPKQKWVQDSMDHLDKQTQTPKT
The protocol: as §1, §2, §3

The next assay addresses T14, RANTES (CCL5) (UniProt P13501 24-91).
T14 construct: Bought chemokine
T14 sequence (looked up): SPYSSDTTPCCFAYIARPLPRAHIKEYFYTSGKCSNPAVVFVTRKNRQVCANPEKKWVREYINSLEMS
On the procedure: as §1, §2, §3

Another assay has as its target T15, Exodus-2 (CCL21) (UniProt O00585 24-134).
T15 construct: Bought chemokine
T15 sequence (looked up): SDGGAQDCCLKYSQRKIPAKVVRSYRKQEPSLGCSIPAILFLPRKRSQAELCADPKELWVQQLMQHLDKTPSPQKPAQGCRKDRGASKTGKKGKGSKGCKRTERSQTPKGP
The protocol: as §1, §2, §3

The next assay deals with T16, Eotaxin 2 (CCL24) (UniProt O00175 27-104, limits assumed).
T16 construct: Bought chemokine
T16 sequence (looked up): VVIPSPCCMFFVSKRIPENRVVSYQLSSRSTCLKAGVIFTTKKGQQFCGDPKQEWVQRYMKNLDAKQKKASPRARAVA
The protocol:
as §1, §2, §3

These results are taken from patent US20100227824A1 (SYMTHERA CANADA, published 2010).

Ends that are not written are not given here. Bounds are passed on as bounds.

T3 sequence (P51671 24-97 limits assumed): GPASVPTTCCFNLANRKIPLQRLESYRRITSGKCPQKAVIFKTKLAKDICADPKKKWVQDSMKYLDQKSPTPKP

B1: Phage-Presented Peptide 8.4 (Ph-p8.4) (peptide)
peptide: WVFG
As to B1, the binding result in the assay with TECK (CCL25), in the assay with Lymphotactin (XCL-1), with Eotaxin (CCL11), in the assay with IP-10 (CXCL10), with I-TAC (CXCL11) and with Mig (CXCL9) was “binds” throughout. The binding result with I-309 (CCL1), with BCA-1 (CXCL13) and in the assay with Eotaxin 3 (CCL26) was “binds” in each case. In addition, the “Relative Fluorescence Units (RFU)” value with MCP-2 (CCL8) and with MCP-4 (CCL13) was above 15000 RFU each time.

B2: Phage-Presented Peptide 17 (Ph-p17) (peptide)
peptide: HYTCSSHFP
modifications: also: displayed on M13 phage, fusion not given here
As for B2, the binding result with GRO-β (CXCL2), with TECK (CCL25), with Lymphotactin (XCL-1), in the assay with Eotaxin (CCL11), with I-TAC (CXCL11) and in the assay with Mig (CXCL9) was “binds” in each case. Besides, the binding result in the assay with MCP-4 (CCL13), in the assay with MCP-1 (CCL2) and in the assay with Eotaxin 3 (CCL26) was “binds” throughout. Moreover, the “Relative Fluorescence Units (RFU)” value with MCP-2 (CCL8) and with RANTES (CCL5) was above 600 RFU throughout.

B3: Phage-Presented Peptide 20 (Ph-p20) (peptide)
peptide: TKCQKE
Turning to B3, the binding result in the assay with GRO-β (CXCL2), with Exodus-2 (CCL21), with TECK (CCL25), with Lymphotactin (XCL-1), with Eotaxin (CCL11) and with IP-10 (CXCL10) was “binds” in each case. The binding result in the assay with Mig (CXCL9), in the assay with BCA-1 (CXCL13), in the assay with RANTES (CCL5) and with Eotaxin 3 (CCL26) was “binds” throughout. For the same molecule, the “Relative Fluorescence Units (RFU)” value in the assay with MCP-2 (CCL8), with MCP-4 (CCL13) and with MCP-1 (CCL2) was above 15000 RFU in each case.

B4: Phage-Presented Peptide 15 (Ph-p15) (peptide)
peptide: WVFGSGLCK
With B4, the binding result in the assay with GRO-β (CXCL2), in the assay with Exodus-2 (CCL21), with TECK (CCL25), with Lymphotactin (XCL-1), with Eotaxin (CCL11) and in the assay with MCP-2 (CCL8) was “binds” throughout. Besides, the binding result in the assay with MCP-4 (CCL13), with MCP-1 (CCL2), with BCA-1 (CXCL13), in the assay with Eotaxin 2 (CCL24), with RANTES (CCL5) and with Eotaxin 3 (CCL26) was “binds” each time. Also, the “Relative Fluorescence Units (RFU)” value in the assay with IP-10 (CXCL10), in the assay with I-TAC (CXCL11) and in the assay with Mig (CXCL9) was above 15000 RFU in each case.

B5: Phage-Presented Peptide 11 (Ph-p11) (peptide)
peptide: TTFFDYDYG
Turning to B5, the binding result with GRO-β (CXCL2), with TECK (CCL25), with Lymphotactin (XCL-1), with Eotaxin (CCL11), with Mig (CXCL9) and with RANTES (CCL5) was “binds” in each case. Besides, the binding result in the assay with Eotaxin 3 (CCL26) is given as “binds”. For the same molecule, the “Relative Fluorescence Units (RFU)” value with MCP-2 (CCL8), with MCP-4 (CCL13) and in the assay with MCP-1 (CCL2) was above 600 RFU throughout.

B6: Phage-Presented Peptide 18 (Ph-p18) (peptide)
peptide: DRYLNIVHAT
For the molecule B6, the binding result in the assay with GRO-β (CXCL2), with TECK (CCL25), with Lymphotactin (XCL-1), with Eotaxin (CCL11), in the assay with MCP-2 (CCL8) and with MCP-4 (CCL13) was “binds” throughout. Besides, the binding result with MCP-1 (CCL2), in the assay with BCA-1 (CXCL13), with Eotaxin 2 (CCL24), with RANTES (CCL5) and with Eotaxin 3 (CCL26) was “binds” each time. For the same molecule, the “Relative Fluorescence Units (RFU)” value with I-TAC (CXCL11) and with Mig (CXCL9) was above 9000 RFU in each case.

B7: Phage Presented (Ph) Peptide (p) 8 (peptide)
peptide: WVFGNAMCK
notes: also called Ph-p28; Ph-p 8
In the case of B7, the “Relative Fluorescence Units (RFU)” value with MCP-2 (CCL8) and with MCP-4 (CCL13) was above 25000 RFU each time.

B8: Phage-Presented Peptide 27 (Ph-p27) (peptide)
peptide: SYYDDVGL
On to B8, for which the binding result with GRO-β (CXCL2), with Exodus-2 (CCL21), with TECK (CCL25), in the assay with Lymphotactin (XCL-1), in the assay with Eotaxin (CCL11) and with MCP-2 (CCL8) was “binds” in each case. Besides, the binding result with MCP-4 (CCL13), with MCP-1 (CCL2), with BCA-1 (CXCL13), with Eotaxin 2 (CCL24), with RANTES (CCL5) and in the assay with Eotaxin 3 (CCL26) was “binds” each time. In addition, the “Relative Fluorescence Units (RFU)” value with I-TAC (CXCL11) and in the assay with Mig (CXCL9) was above 15000 RFU throughout.

B9: Phage-Presented Peptide 8.1 (Ph-p8.1) (peptide)
peptide: GNAMCK
With B9, the “Relative Fluorescence Units (RFU)” value in the assay with TECK (CCL25), with Lymphotactin (XCL-1), with BCA-1 (CXCL13) and with Eotaxin 3 (CCL26) was above 15000 RFU in each case.
